Tests used:
HeLa Kyoto [1] = assay: solubility in G1/S (NP-40 vs SDS abundance) (log2 ratio); higher = more soluble; conditions: cell cycle stage: G1/S
HeLa Kyoto [2] = assay: melting temperature (median over replicates), in situ; higher = more thermally stable
HeLa Kyoto [3] = assay: solubility change mitosis vs G1/S (difference of NP-40 vs SDS log2 ratios) (log2 ratio difference); higher = more soluble in mitosis
HeLa Kyoto [4] = assay: thermal stability score vs G1/S (z-score of summed log2 fold changes over temperatures); higher = more thermally stable than in G1/S
[5] = cell cycle stage: early G1 (4.5 h after nocodazole release)
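Throughout, for melting temperature (median over replicates), in situ: HeLa Kyoto cells synchronized by double thymidine or nocodazole block, proteins quantified by TMT10plex mass spectrometry, three independent biological replicates.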
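Throughout, for solubility change mitosis vs G1/S (difference of NP-40 vs SDS log2 ratios): synchronized HeLa Kyoto cells (double thymidine block for G1/S, nocodazole release for mitosis), protein amounts in NP-40 versus SDS lysates quantified by mass spectrometry, three biological replicates.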
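Throughout, for solubility in G1/S (NP-40 vs SDS abundance): HeLa Kyoto cells arrested at G1/S by double thymidine block, proteins quantified by TMT10plex mass spectrometry in mild NP-40 versus SDS extracts, three biological replicates.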
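Throughout, for thermal stability score vs G1/S (z-score of summed log2 fold changes over temperatures): synchronized HeLa Kyoto cells, proteins quantified by TMT10plex mass spectrometry, three biological replicates, mitosis taken 0.5 h after nocodazole release, G1/S directly after double thymidine block.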

| Sequence | solubility in G1/S (log2) (HeLa Kyoto [1]) | melting temperature (HeLa Kyoto [2]; cell cycle stage: mitosis) [°C] | solubility change mitosis (log2) (HeLa Kyoto [3]) | thermal stability score (HeLa Kyoto [4]; [5]) | thermal stability score (HeLa Kyoto [4]; cell cycle stage: mitosis) | melting temperature (HeLa Kyoto [2]; cell cycle stage: G1/S) [°C] |
| --- | --- | --- | --- | --- | --- | --- |
| MSSRKLSGPKGRRLSIHVVTWNVASAAPPLDLSDLLQLNNRNLNLDIYVIGLQELNSGIISLLSDAAFNDSWSSFLMDVLSPLSFIKVSHVRMQGILLLVFAKYQHLPYIQILSTKSTPTGLFGYWGNKGGVNICLKLYGYYVSIINCHLPPHISNNYQRLEHFDRILEMQNCEGRDIPNILDHDLIIWFGDMNFRIEDFGLHFVRESIKNRCYGGLWEKDQLSIAKKHDPLLREFQEGRLLFPPTYKFDRNSNDYDTSEKKRKPAWTDRILWRLKRQPCAGPDTPIPPASHFSLSLRGYSSHMTYGISDHKPVSGTFDLELKPLVSAPLIVLMPEDLWTVENDMMVSYSSTSDFPSSPWDWIGLYKVGLRDVNDYVSYAWVGDSKVSCSDNLNQVYIDISNIPTTEDEFLLCYYSNSLRSVVGISRPFQIPPGSLREDPLGEAQPQI [INPP5K] | -0.384 | 51.8 | -0.0846 | -0.0552 | 0.149 |  |
| MGLADASGPRDTQALLSATQAMDLRRRDYHMERPLLNQEHLEELGRWGSAPRTHQWRTWLQCSRARAYALLLQHLPVLVWLPRYPVRDWLLGDLLSGLSVAIMQLPQGLAYALLAGLPPVFGLYSSFYPVFIYFLFGTSRHISVGTFAVMSVMVGSVTESLAPQALNDSMINETARDAARVQVASTLSVLVGLFQVGLGLIHFGFVVTYLSEPLVRGYTTAAAVQVFVSQLKYVFGLHLSSHSGPLSLIYTVLEVCWKLPQSKVGTVVTAAVAGVVLVVVKLLNDKLQQQLPMPIPGELLTLIGATGISYGMGLKHRFEVDVVGNIPAGLVPPVAPNTQLFSKLVGSAFTIAVVGFAIAISLGKIFALRHGYRVDSNQELVALGLSNLIGGIFQCFPVSCSMSRSLVQESTGGNSQVAGAISSLFILLIIVKLGELFHDLPKAVLAAIIIVNLKGMLRQLSDMRSLWKANRADLLIWLVTFTATILLNLDLGLVVAVIFSLLLVVVRTQMPHYSVLGQVPDTDIYRDVAEYSEAKEVRGVKVFRSSATVYFANAEFYSDALKQRCGVDVDFLISQKKKLLKKQEQLKLKQLQKEEKLRKQAASPKGASVSINVNTSLEDMRSNNVEDCKMMQVSSGDKMEDATANGQEDSKAPDGSTLKALGLPQPDFHSLILDLGALSFVDTVCLKSLKNIFHDFREIEVEVYMAACHSPVVSQLEAGHFFDASITKKHLFASVHDAVTFALQHPRPVPDSPVSVTRL [SLC26A6] | -0.00184 | 56 | -0.0476 | -1.84 | -2.56 | 56.6 |
| MSEDLAKQLASYKAQLQQVEAALSGNGENEDLLKLKKDLQEVIELTKDLLSTQPSETLASSDSFASTQPTHSWKVGDKCMAVWSEDGQCYEAEIEEIDEENGTAAITFAGYGNAEVTPLLNLKPVEEGRKAKEDSGNKPMSKKEMIAQQREYKKKKALKKAQRIKELEQEREDQKVKWQQFNNRAYSKNKKGQVKRSIFASPESVTGKVGVGTCGIADKPMTQYQDTSKYNVRHLMPQ [SMNDC1] | 0.271 | 55.9 | 0.405 | -2.66 | -6.93 | 57.7 |
| MRAVRRGLREGGAMAAARDPPEVSLREATQRKLRRFSELRGKLVARGEFWDIVAITAADEKQELAYNQQLSEKLKRKELPLGVQYHVFVDPAGAKIGNGGSTLCALQCLEKLYGDKWNSFTILLIHSGGYSQRLPNASALGKIFTALPLGNPIYQMLELKLAMYIDFPLNMNPGILVTCADDIELYSIGEFEFIRFDKPGFTALAHPSSLTIGTTHGVFVLDPFDDLKHRDLEYRSCHRFLHKPSIEKMYQFNAVCRPGNFCQQDFAGGDIADLKLDSDYVYTDSLFYMDHKSAKMLLAFYEKIGTLSCEIDAYGDFLQALGPGATVEYTRNTSNVIKEESELVEMRQRIFHLLKGTSLNVVVLNNSKFYHIGTTEEYLFYFTSDNSLKSELGLQSITFSIFPDIPECSGKTSCIIQSILDSRCSVAPGSVVEYSRLGPDVSVGENCIISGSYILTKAALPAHSFVCSLSLKMNRCLKYATMAFGVQDNLKKSVKTLSDIKLLQFFGVCFLSCLDVWNLKVTEELFSGNKTCLSLWTARIFPVCSSLSDSVITSLKMLNAVKNKSAFSLNSYKLLSIEEMLIYKDVEDMITYREQIFLEISLKSSLM [FPGT] | 0.115 | 55.1 | -0.353 | 1.19 | 2.29 | 54.4 |
| MGRLASRPLLLALLSLALCRGRVVRVPTATLVRVVGTELVIPCNVSDYDGPSEQNFDWSFSSLGSSFVELASTWEVGFPAQLYQERLQRGEILLRRTANDAVELHIKNVQPSDQGHYKCSTPSTDATVQGNYEDTVQVKVLADSLHVGPSARPPPSLSLREGEPFELRCTAASASPLHTHLALLWEVHRGPARRSVLALTHEGRFHPGLGYEQRYHSGDVRLDTVGSDAYRLSVSRALSADQGSYRCIVSEWIAEQGNWQEIQEKAVEVATVVIQPSVLRAAVPKNVSVAEGKELDLTCNITTDRADDVRPEVTWSFSRMPDSTLPGSRVLARLDRDSLVHSSPHVALSHVDARSYHLLVRDVSKENSGYYYCHVSLWAPGHNRSWHKVAEAVSSPAGVGVTWLEPDYQVYLNASKVPGFADDPTELACRVVDTKSGEANVRFTVSWYYRMNRRSDNVVTSELLAVMDGDWTLKYGERSKQRAQDGDFIFSKEHTDTFNFRIQRTTEEDRGNYYCVVSAWTKQRNNSWVKSKDVFSKPVNIFWALEDSVLVVKARQPKPFFAAGNTFEMTCKVSSKNIKSPRYSVLIMAEKPVGDLSSPNETKYIISLDQDSVVKLENWTDASRVDGVVLEKVQEDEFRYRMYQTQVSDAGLYRCMVTAWSPVRGSLWREAATSLSNPIEIDFQTSGPIFNASVHSDTPSVIRGDLIKLFCIITVEGAALDPDDMAFDVSWFAVHSFGLDKAPVLLSSLDRKGIVTTSRRDWKSDLSLERVSVLEFLLQVHGSEDQDFGNYYCSVTPWVKSPTGSWQKEAEIHSKPVFITVKMDVLNAFKYPLLIGVGLSTVIGLLSCLIGYCSSHWCCKKEVQETRRERRRLMSMEMD [PTGFRN] | 0.0152 | 57.1 | -0.133 | -2.55 | -2.42 | 56.7 |
| MAPAGCCCCCCFWGGAVAAAGAARRVLLLLLLGVLSAGLRPGALATEHYSPLSLLKQELQHRQQQEAPAGGGGCSPQSGDWGDQYSAECGESSFLNFHDSDCEPKGSSPCDSLLSLNTEKILSQAKSIAEQKRFPFATDNDSTNEELAIAYVLIGSGLYDEAIRHFSTMLQEEPDLVSAIYGRGIAYGKKGLHDIKNAELALFELSRVITLEPDRPEVFEQRAEILSPLGRINEAVNDLTKAIQLQPSARLYRHRGTLYFISEDYATAHEDFQQSLELNKNQPIAMLYKGLTFFHRGLLKEAIESFKEALKQKVDFIDAYKSLGQAYRELGNFEAATESFQKALLLNQNHVQTLQLRGMMLYHHGSLQEALKNFKRCLQLEPYNEVCQYMKGLSHVAMGQFYEGIKAQTKVMLNDPLPGQKASPEYLKVKYLREYSRYLHAHLDTPLTEYNIDVDLPGSFKDHWAKNLPFLIEDYEEQPGLQPHIKDVLHQNFESYKPEVQELICVADRLGSLMQYETPGFLPNKRIHRAMGLAALEVMQAVQRTWTNSKVRMNGKTRLMQWRDMFDIAVKWRRIADPDQPVLWLDQMPARSLSRGFNNHINLIRGQVINMRYLEYFEKILHFIKDRILVYHGANNPKGLLEVREALEKVHKVEDLLPIMKQFNTKTKDGFTVNTKVPSLKDQGKEYDGFTITITGDKVGNILFSVETQTTEERTQLYHAEIDALYKDLTAKGKVLILSSEFGEADAVCNLILSLVYYFYNLMPLSRGSSVIAYSVIVGALMASGKEVAGKIPKGKLVDFEAMTAPGSEAFSKVAKSWMNLKSISPSYKTLPSVSETFPTLRSMIEVLNTDSSPRCLKKL [TTC13] | 0.165 | 53.3 | -0.163 | 1.53 | 0.195 | 52.7 |
| MKSARAKTPRKPTVKKGSQTNLKDPVGVYCRVRPLGFPDQECCIEVINNTTVQLHTPEGYRLNRNGDYKETQYSFKQVFGTHTTQKELFDVVANPLVNDLIHGKNGLLFTYGVTGSGKTHTMTGSPGEGGLLPRCLDMIFNSIGSFQAKRYVFKSNDRNSMDIQCEVDALLERQKREAMPNPKTSSSKRQVDPEFADMITVQEFCKAEEVDEDSVYGVFVSYIEIYNNYIYDLLEEVPFDPIKPKPPQSKLLREDKNHNMYVAGCTEVEVKSTEEAFEVFWRGQKKRRIANTHLNRESSRSHSVFNIKLVQAPLDADGDNVLQEKEQITISQLSLVDLAGSERTNRTRAEGNRLREAGNINQSLMTLRTCMDVLRENQMYGTNKMVPYRDSKLTHLFKNYFDGEGKVRMIVCVNPKAEDYEENLQVMRFAEVTQEVEVARPVDKAICGLTPGRRYRNQPRGPVGNEPLVTDVVLQSFPPLPSCEILDINDEQTLPRLIEALEKRHNLRQMMIDEFNKQSNAFKALLQEFDNAVLSKENHMQGKLNEKEKMISGQKLEIERLEKKNKTLEYKIEILEKTTTIYEEDKRNLQQELETQNQKLQRQFSDKRRLEARLQGMVTETTMKWEKECERRVAAKQLEMQNKLWVKDEKLKQLKAIVTEPKTEKPERPSRERDREKVTQRSVSPSPVPLSSNYIAQISNGQQLMSQPQLHRRSNSCSSISVASCISEWEQKIPTYNTPLKVTSIARRRQQEPGQSKTCIVSDRRRGMYWTEGREVVPTFRNEIEIEEDHCGRLLFQPDQNAPPIRLRHRRSRSAGDRWVDHKPASNMQTETVMQPHVPHAITVSVANEKALAKCEKYMLTHQELASDGEIETKLIKGDIYKTRGGGQSVQFTDIETLKQESPNGSRKRRSSTVAPAQPDGAESEWTDVETRCSVAVEMRAGSQLGPGYQHHAQPKRKKP [KIF23] | -0.255 | 49.6 | -0.112 | 0.0501 | 0.448 | 49.3 |
| MCGDCVEKEYPNRGNTCLENGSFLLNFTGCAVCSKRDFMLITNKSLKEEDGEEIVTYDHLCKNCHHVIARHEYTFSIMDEFQEYTMLCLLCGKAEDTISILPDDPRQMTLLF [CHURC1] | 0.0387 | 52.5 | -0.361 | -2.8 | -3.3 | 51.5 |
| MEKTCIDALPLTMNSSEKQETVCIFGTGDFGRSLGLKMLQCGYSVVFGSRNPQKTTLLPSGAEVLSYSEAAKKSGIIIIAIHREHYDFLTELTEVLNGKILVDISNNLKINQYPESNAEYLAHLVPGAHVVKAFNTISAWALQSGALDASRQVFVCGNDSKAKQRVMDIVRNLGLTPMDQGSLMAAKEIEKYPLQLFPMWRFPFYLSAVLCVFLFFYCVIRDVIYPYVYEKKDNTFRMAISIPNRIFPITALTLLALVYLPGVIAAILQLYRGTKYRRFPDWLDHWMLCRKQLGLVALGFAFLHVLYTLVIPIRYYVRWRLGNLTVTQAILKKENPFSTSSAWLSDSYVALGILGFFLFVLLGITSLPSVSNAVNWREFRFVQSKLGYLTLILCTAHTLVYGGKRFLSPSNLRWYLPAAYVLGLIIPCTVLVIKFVLIMPCVDNTLTRIRQGWERNSKH [STEAP4] | -0.0287 | 57.7 | -0.115 | -2.95 | -3.54 | 60.3 |
| MAQSRDGGNPFAEPSELDNPFQDPAVIQHRPSRQYATLDVYNPFETREPPPAYEPPAPAPLPPPSAPSLQPSRKLSPTEPKNYGSYSTQASAAAATAELLKKQEELNRKAEELDRRERELQHAALGGTATRQNNWPPLPSFCPVQPCFFQDISMEIPQEFQKTVSTMYYLWMCSTLALLLNFLACLASFCVETNNGAGFGLSILWVLLFTPCSFVCWYRPMYKAFRSDSSFNFFVFFFIFFVQDVLFVLQAIGIPGWGFSGWISALVVPKGNTAVSVLMLLVALLFTGIAVLGIVMLKRIHSLYRRTGASFQKAQQEFAAGVFSNPAVRTAAANAAAGAAENAFRAP [SCAMP3] | 0.19 | 57.8 | -0.173 | -1.12 | 0.091 | 58.2 |

Source: the supplement of paper PMC5998384
